From patent publication US20210244792A1

Target: complement C5
Assay: direct binding to C5 (FIG. 4C); method not described

EV576 protein (native, purified from salivary gland extracts of the soft tick Ornithodoros moubata) (from UniProt Q5YD59 19-168)
IC50: 20 µg/mL
